From the nanobody polyreactivity screen of Harvey et al. (2022)

experiment: yeast display, Sf9 membrane polyspecificity reagent, FACS + sequencing; frameworks hold sequencing errors
Outline: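 Genes from sorted yeast were amplified by colony PCR, read by MiSeq 2 × 250 sequencing and filtered on CDR length. These cells carried a synthetic nanobody library in Saccharomyces cerevisiae BJ5465 and were sorted by FACS into low and high (top ~1%) gates on anti-HA and streptavidin fluorescence. Polyreactivity is labelled according to the gate of origin.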

| Sequence | polyreactivity (PSR sort gate) |
| --- | --- |
| QVQLVESGGGLVQAGGSLRLSCAASGSIFSWYAMGWYRQAPGKERELVAAISNAGRTYYADSVKGRFTISRDNAKNTVYLQMNSLKPEDTAVYYCAAAGPRQGNYGGYEYWGQGTQVTVSS | high polyreactivity |
| QVQLVESGGGLVQAGGSLRLSCAASGSIFSYDAMGWYRLAPGKERELVAVINSGGRTNYADSVKGRFTISRDNAKNTVYLQMNRLKPEDTAVYYCAAQGYFVDRAGRYDRGDYWGQGTQVTVSS | high polyreactivity |
| QVQLVESGGGLVQAGGSLRLSCAASGSIFSYNAMGWSRQAPGNERELVARISYSGGSTYYADSVKGRFTISRDNAKNTVYLQMNSLKPEDTAVYYCAKRAYGWPYDYWGQGTQVTVSS | high polyreactivity |
| QVQLVESGGGLVQAGGSLRLSCAASGSIFSYNVMGWYRPAPGKERELVAAITQSGTSTYYADSVKGRFTISRDNAKNTVYLQMNSLKPEDTAVYYCAVDWYSAYGGYYWSQYDYWGQGTQVTVSS | low polyreactivity |
| QVQLVESGGGLVQAGGSLRLSCAASGSIFSYYAMGWSSQAPGKERELVAAISKRGASTYYADSVKGRFSISRDIAKNTVYLQMNSLKPEDTAVYYCAAYRQGSAYDYWGKGTQVTVSS | high polyreactivity |
| QVQLVESGGGLVQAGGSLRLSCAASGSIFSYYAMGWYRQAPGKERELVAAINGGDSTNYADSVKGRFTISRDNAKNTVYLQMNSLKPEDTAVYYCAADNYDAALLFEYYYWGQGTQVTVSS | low polyreactivity |
| QVQLVESGGGLVQAGGSLRLSCAASGSIFSYYAMGWYRQAPGKERELVAAISQSGGSTYYADSVKGRFTISRDNAKNTVYLQMNSLKPEDTAVYYCNAVARHTRSKYGSWGQGTQVTVSS | high polyreactivity |
| QVQLVESGGGLVQAGGSLRLSCAASGSIFSYYAMGWYRQAPGKERELVAAISRSGVSTYYADSVKGRFTISRDNAKNTVYLQMNSLKPEDTAVYYCNAVFTWPRRKYGYDYWGQGTQVTVSS | high polyreactivity |
| QVQLVESGGGLVQAGGSLRLSCAASGSIFSYYAMGWYRQAPGKERELVAAISSRGGSTYYADSVKGRFTISRDNAKKTVYLQMNSLKPEDTAVYYCAADWTSWFGVTYDYWGQGTQVTVSS | high polyreactivity |
| QVQLVESGGGLVQAGGSLRLSCAASGSIFSYYAMGWYRQAPGKERELVAAISWSGTSTYYADSVKGRFTISRDNAKNTVYLQMNSLKPEDTAVYYCNAGDNPIFDLGQGTQVTVSS | high polyreactivity |
| QVQLVESGGGLVQAGGSLRLSCAASGSIFSYYAMGWYRQAPGKERELVAGISISTGSTYYADSVKGRFTISRDNAKNTVYLQMNSLKPEDNAVYYCAAAQDDGYSQDIYYQLSAYDYWGQGTQVTVSS | low polyreactivity |
| QVQLVESGGGLVQAGGSLRLSCAASGSIFSYYAMGWYRQAPGKERELVASITSGGSTNYADSVKGRFTISRDNAKNTVYLQMNSLKPEDTAVYYCNKDGKYHRVLYDYWGQGTQVTVSS | low polyreactivity |
| QVQLVESGGGLVQAGGSLRLSCAASGSIFSYYAMGWYRQAPGKERELVAVISSSGGRTYYADSVKGRFTISRDNAKNTVYLQMNSLKPEDTAVYYCAAKYRVFYGFDYWGQGTQVTVSS | high polyreactivity |
| QVQLVESGGGLVQAGGSLRLSCAASGSIFSYYDMGWYRQAPGKERELVAGISRGGSTNYADSVKGRFTISRDNAKNTVYLQMNSLKPEDTAVYYCNADQSSRTYPFRRSRRSWLYGYWGQGTQVTVSS | low polyreactivity |
| QVQLVESGGGLVQAGGSLRLSCAASGSIFSYYVKGWYRQAPGKERELVAVITDRGGRTYYADSVKGRFTISRDNAKNPVYLQMNSLKPEDTAVYYCNKYIRRYLIYGSWGQGTQVTVSS | high polyreactivity |
| QVQLVESGGGLVQAGGSLRLSCAASGSIFTAYAMGWYRQAPGKERELVAAIDDSGDSTYYADSVKGRFTISRDNAKNTVYLQMNSLKPEDTAVYYCKAEYRVNKEYDYWGQGTQVTVSS | low polyreactivity |
| QVQLVESGGGLVQAGGSLRLSCAASGSIFTDNAMGWYRQAPGKERELVAGISYNGDNTYYADSVKGRFTISRDNAKNTVYLQMNSLKPEDTAVYYCAAADGIIESDYWGQGTQVTVSS | low polyreactivity |
| QVQLVESGGGLVQAGGSLRLSCAASGSIFTFNAMGWYRQAPGKERELVAAISTGGNTYYADSVKGRFTISRDNAKNTVYLQINSLKPEDTAVFYCAAVRRTDGDGKYYYWGQGTQVTVSS | high polyreactivity |
| QVQLVESGGGLVQAGGSLRLSCAASGSIFTFYAMGWYRQAPGKERELVAAISSGGRTYYADSVKGRFTISRDNAKNTVYLQMNSLKPEDTAVYYCAASYQQYFYRYALPADYYYWGQGTQVTVSS | high polyreactivity |
| QVQLVESGGGLVQAGGSLRLSCAASGSIFTFYAMGWYRQAPGKERELVATINRIGGNTYYADSVKGRFTISRDNAKNSVYLLMKSLKPEETAVYYCAVCPYTRPYYRTFDHWGQGTLVTVSS | low polyreactivity |
| QVQLVESGGGLVQAGGSLRLSCAASGSIFTFYAMGWYRQAPGKERELVATINRIGGNTYYADSVKGRFTISRDNAKNTVYFQMNSLKPEDTAVYYCAADRSAWGSNWETQFDYWGQGTQVTVSS | low polyreactivity |
| QVQLVESGGGLVQAGGSLRLSCAASGSIFTFYTMGWYRQAPGKERELVAAINWSGSRTYYADSVKGRFTISRDNAKNTVYLQMNSLIQEDTAVYYCNVRCYYKRRYGWYSYRYGYWGQGTQVTVSS | high polyreactivity |

| Sequence | polyreactivity (PSR sort gate) |
| --- | --- |
| QVQLVESGGGLVQAGGSLRLSCAASGSIFTGYAMGWYRQAPGKERELVAAISYSTGRTYYADSVKGRFTISRDNAKNTVYLQMNSLKPEDTAVYYCAARYREQYDYWGQGTQVTVSS | low polyreactivity |
| QVQLVESGGGLVQAGGSLRLSCAASGSIFTGYDMGWYRQAPGKERELVAVISTAGRTYYADSVKGRFTISRDNAKNTVYLQMNSLKPEDTAVYYCAKRSYSKDQPRYGYWGQGTQVTVSS | low polyreactivity |
| QVQLVESGGGLVQAGGSLRLSCAASGSIFTIYAMGWYRQAPGKERELVAAISFSGGSTYYADSVKGRFTISRDNAKNTVYLQMNSLKPEDTAVYYCAADGGFTYDNWGQGTQVTVSS | low polyreactivity |
| QVQLVESGGGLVQAGGSLRLSCAASGSIFTIYAMGWYRQAPGKERELVATITGGGGSTYYADSVKGRFTISRDNAKNTVYLQMNSLKPEDTAVYYCATDFRRTRSYGNSRSYGYWGQGTQVTVSS | low polyreactivity |
| QVQLVESGGGLVQAGGSLRLSCAASGSIFTKYAMGWYRPAPGKERELVAAISYSGGTRTYYADSVKGRFTSSRDNAKNTVYLQMNSLKPEDTAVYYCAARRYTRRANPAYPYEYWGQGTQVTVSS | high polyreactivity |
| QVQLVESGGGLVQAGGSLRLSCAASGSIFTKYAMGWYRQAPGKEREFVAAITLSGGSTYYADSVKGRFTIGRDNAKNTVYLQMNSLKPEDTAVYYCNAAYTYVTAWYYYWGQGTQVTVSS | high polyreactivity |
| QVQLVESGGGLVQAGGSLRLSCAASGSIFTLYAMGSYRQAPGKERELVAAITWSGGSTYYADSVKGRFTISRDNAKNTVYLQMNSLKPEDTAVYYCAKDYLAGGPWEGHVEREYDYWGQGTQVTVSS | low polyreactivity |
| QVQLVESGGGLVQAGGSLRLSCAASGSIFTLYAMGWYRQAPGKETELVAVISSSGGRTYYADSVKGRFTISRDNAKNTVYLQMNSLKPEDTAVYYGAARGYGATYDYWGQGTQVTVSS | high polyreactivity |
| QVQLVESGGGLVQAGGSLRLSCAASGSIFTNAMGWYRQAPGKERELVAAISSTGGSTYYADSVKGRFTISRDNAKNTVYLQMYSLKPEDTAVYYCAADHYGGRDYWGQGTQLTVSS | low polyreactivity |
| QVQLVESGGGLVQAGGSLRLSCAASGSIFTNNAMGWYRHAPGKERELVAAISRGGSTYYADSVKGRFTISRDIAKNTDFIQMNSLIPEDTAVYYCNARRYRHDGYWGQGTQVTVSS | high polyreactivity |
| QVQLVESGGGLVQAGGSLRLSCAASGSIFTNNAMGWYRQAPGKERELVAGINISGDSTYYADSVKGRFTISRDNAKNTVYLQMNSLKPEDTAVYYCAAGDGYAGIYDYWGQGTQVTVSS | low polyreactivity |
| QVQLVESGGGLVQAGGSLRLSCAASGSIFTPNVKGRYRQAPGKERELVAAISQSGGSTFYADSVKGRFSFSRDNAKKTVYLQMNSLKPEDTAVYYCASEYYGPVYDLDFDYWGQGTQVTVSS | low polyreactivity |
| QVQLVESGGGLVQAGGSLRLSCAASGSIFTPNVMGWYRHAPGKERELVAAISQSGGSTFYADSVKGRFTISRDNAKNTVYLQMNSLKPEDTAVYYCNVDDNSEYDYWGQGSQVTVSS | low polyreactivity |
| QVQLVESGGGLVQAGGSLRLSCAASGSIFTPNVMGWYRQEPGKERELVAAISQRGGSTYYADSVKGRFTLSRDNAKNTVYLQMNSLKPEDTAVYYCNKDNAVDRLPWFQVTYDYWGQGTQVTVSS | low polyreactivity |
| QVQLVESGGGLVQAGGSLRLSCAASGSIFTPYAMGWYRQAPGKERELVAAITYSGGSTYYADSVKGRFTISRDNAKNTVYLLMNSLKPEDTAVYYCAAYFNIYGLEYDYWGQGTQVTVSS | high polyreactivity |
| QVQLVESGGGLVQAGGSLRLSCAASGSIFTPYAMGWYRQAPGKERELVADIDASGGGTYADSVKGRFTISRDNAKNTVYLQMNSLKPEDTAVFYCNADTGIWDYRFVDRDYWGQGTQVTVSS | low polyreactivity |
| QVQLVESGGGLVQAGGSLRLSCAASGSIFTQYAMGWYRQAPGKERELVAAISWRGGRTYYADSVKGRFTISRDNAKNTVYLQMNSLKPEDTAVYYCNRVYGAHHYYYGIGTYDYWGQGTQVTVSS | high polyreactivity |
| QVQLVESGGGLVQAGGSLRLSCAASGSIFTRNAMGWYRQAPGKERELVATIRKNGASTTYADSVKGRFTISRDNAKNTVYLQMNSLKQEDTAVYYCARDHHTKYNYWGQGTQVTVSS | low polyreactivity |
| QVQLVESGGGLVQAGGSLRLSCAASGSIFTRYAMGWYRQAPGKEREFVAAITTRGGSTYYADSVKGRFTISRDNAKNTVYLQMNSLKPEDTAVYYCNTRGKSGLWWYNYWGQGTQVTVSS | high polyreactivity |
| QVQLVESGGGLVQAGGSLRLSCAASGSIFTRYAMGWYRQAPGKERELVAAISQSGGNTYYADSVKGRFTISRDNAKNTVYLQMNSLKPEDTAVYYCAARWPWTHTRGYWGQGTQVTVSS | high polyreactivity |
| QVQLVESGGGLVQAGGSLRLSCAASGSIFTRYAMGWYRQAPGKERELVAAISWIGTRTYYADSVKGRFTISRDNAKNTVYLQMNSLKPEDTAVYYCNAVSKVERYSYPHGRPFEYWGQGTQVTVSS | high polyreactivity |
